In PMC7108782, “Direct interaction of metastasis-inducing S100P protein with tubulin causes enhanced cell migration without changes in cell adhesion” (Biochemical Journal, 2020):
“And” between values parts separate entries of the source, which are not always exact repeats. Equal values may be shown once.

Legend:
COS-7 S10 cells [1] = assay: Cell adhesion assays, COS-7 S10; assay type: cell-based, monkey
Description: (§1) For kinetics of attachment either HeLa-A3 or COS-7 S10 cells were induced with 1 µg/ml doxycycline 48 h prior to experiment and 2 × 10^5 uninduced or induced cells in 1 ml were added to 24 well tissue culture dishes and allowed to adhere at 37°C. At the given time (30 min to 2 h) cells were washed 2× with PBS and detached with 250 µl 0.05% (w/v) trypsin in versene for 5 min at 37°C, neutralised in serum-containing media (SCM), counted and the percent of seeded cells recorded. For strength of adhesion, the same cells were seeded in 24 well tissue culture dishes so as to yield 80% confluence in 24 h. In all cases identical dishes were set up for test and control. After 24 h, wells were washed 2× and detached with 250 µl, 0.0125% (w/v) trypsin in versene for 5 min at 37°C. Wells were then carefully washed 2× to remove weak binders. Trypsin in versene (250 µl of 0.05% (w/v)) was then added to both test dish and control dish for 5 min to remove all cells from the well, neutralised with SCM and counted. The proportion of cells remaining after the weak digestion step was determined from the ratio of results from test and control plates. All assays were performed in triplicate.

COS-7 cells = assay: Living colour expression: YFP-S100P with CFP-EB3; assay type: cell-based, monkey; settings: high YFP-S100P, 24 h
Description: S100P fused to yellow fluorescent protein (YFP), and EB3 fused to cyan fluorescent protein (CFP) (EB3-CFP) expression plasmids, pYFP-S100P and pCFP-EB3 were constructed, respectively. COS-7 cells were transiently transfected with the two plasmids and images were recorded using a LSM 5 confocal microscope 24 h after transfection. CFP: excitation = 436 nm, emission = 480 nm; YFP: excitation = 500 nm, emission = 520 nm.

HeLa-A3 cells [2] = assay: S100P-enhanced cell migration, HeLa-A3; assay type: cell-based, human; settings: HeLa-A3, doxycycline 1 µg/ml, 24 h
Excerpt: (§2) Cell migration rate (%) = M/G × 100.

[3] = tested on: tubulin polymerisation in COS-7 S10 cells; assay: In vivo tubulin polymerisation assay, COS-7 / COS-7 S10; assay type: cell-based, monkey
Description: (§3) HeLa and S100P-inducible HeLa, COS-7 and S100P-inducible COS-7 cells were routinely cultured with or without doxycycline (1 µg/ml) and treated with 33 µM nocodazole for 24 h to synchronise the cells. Then the nocodazole was washed away (First release) and the synchronised cells were cultured in normal medium for 4 h to allow them to complete cell division. The nocodazole was then added again for 4 h to dissociate all the MTs. After this time, nocodazole was again removed by extensive washings (Second release) and tubulin was allowed to polymerise in the interphase of the cell cycle for different times. The cells were treated with buffer (10 mM Tris–HCl, 150 mM KCl, pH 7.4, 2% (v/v) Triton X-100) and the Triton-X100-insoluble tubulins (representing the newly formed MTs) were solubilised in Sample Buffer and quantified by Western blotting. To test the effect of tubulin-derived peptides, 20 µM T-DIC, T-DLV, T-IMN and tag-peptide alone (Supplementary Table S3) in 0.25% (v/v) DMSO as solvent, as well as the solvent control 0.25% (v/v) DMSO were added immediately after the second release in Sample Buffer and quantified at the different time points by Western blotting.

[4] = tested on: tubulin polymerisation in HeLa-A19 cells; assay: In vivo tubulin polymerisation assay, HeLa / HeLa-A19; assay type: cell-based, human; settings: HeLa-A19, 4 h after second release, 1 µg/ml doxycycline
Description: as §3

Rama 37 cells = settings: inducible Rama 37 (range stated for Rama 37 and HeLa) ref [10],[37]; cited from earlier work
Excerpt: (§4) In our previous study, we reported that S100P enhances cell migration by binding to and affecting distribution of NMIIA filaments in HeLa and Rama 37 cells. We now sought to determine whether S100P overexpression could induce such changes in cells when NMIIA was absent. The monkey kidney COS-7 cells have been reported to lack NMIIA [28] and this was confirmed in comparison with its presence in human HeLa and rat Rama 37 cells (Figure 1A). We then generated three S100P-inducible COS-7 cell lines using doxycycline as the inducing agent, the largest increase being in clone S10 (Figure 1B ...

HeLa cells = settings: inducible HeLa (range stated for Rama 37 and HeLa) ref [10],[37]; cited from earlier work
Excerpt: as §4

COS-7 S10 cells [5] = assay: Boyden chamber cell migration, S100P-inducible COS-7; assay type: cell-based, monkey; settings: 24 h
Excerpt: as §2

[6] = tested on: α and β-tubulin subunits and half molecules; assay: Gel overlay assay; assay type: binding, human; settings: 3 µg/ml S100P, 1 μM proteins, 4°C overnight
Description: The coding sequences for full length (human) α-tubulin and for N-terminal and C-terminal halves of α or β-tubulin were generated using PCR with specific primers shown in Supplementary Table S1 and sub-cloned into pET16(b) for expressing and purifying His-tagged full-length α-tubulin and His-tagged tubulin fragments in E. coli, as described previously. β-tubulin was purchased from Abcam.
Equal molar proteins (1 μM) were subjected to SDS PAGE on 10% (w/v) polyacrylamide gels. One gel was stained with Coomassie Blue to check equal loading and the other electroblotted onto PVDF membrane. Three µg/ml S100P in Gel Overlay Buffer were added to the membrane and the contents incubated at 4°C overnight. After extensive washing, the presence of bound S100P was probed with mouse anti-S100P as described for Western blotting.

HeLa-A3 cells [7] = assay: Cell adhesion assays, HeLa-A3; assay type: cell-based, human; settings: HeLa A3, S100P induced vs uninduced, weak trypsin digestion, n = 3
Description: as §1

B1: S100P: recombinant or doxycycline-induced overexpressed S100P protein (protein)
chain: MTELETAMGMIIDVFSRYSGSEGSTQTLTKGELKVLMEKELPGFLQSGKDKDAVDKLLKDLDANGDAQVDFSEFIVFVAAITSACHKYFEKAGLK
change in rate and strength of adhesion (in words) (COS-7 S10 cells [1]; COS-7 S10, 1 µg/ml doxycycline, P ≥ 0.18): no significant decrease in the rate of adhesion (Supplementary Figure S1) or significant decrease in strength of adhesion | change in strength of adhesion (in words) (COS-7 S10 cells [1]; COS-7 S10, S100P induced vs uninduced, n = 3): significant change in the strength of adhesion upon induction of S100P (t = 0.6, P = 0.95, n = 3) | distribution of peripheral MTs (COS-7 cells): more dispersed distribution of cyan-labelled peripheral MTs | S100P-enhanced cell migration (HeLa-A3 cells [2]): 3–4 folds | reduction in tubulin polymerisation on S100P induction ([3]; COS-7 S10, 4 h after second release, 1 µg/ml doxycycline): ~30% | near steady-state reduction in biochemical assembly of MTs ([3]; Figure 5E, COS-7 S10): 33% | reduction in tubulin polymerisation on S100P induction [4]: 31% and ~30% | fold increase in migration on S100P overexpression (Rama 37 cells): 3.2 to 4.8 fold | fold increase in migration on S100P overexpression (HeLa cells): 3.2 to 4.8 fold | S100P-enhanced cell migration (COS-7 S10 cells [5]; COS-7 S10, doxycycline 1 µg/ml): 2–3 folds | fold increase in relative cell migration rate on S100P induction (COS-7 S10 cells [5]; three inducible COS-7 lines S7, S10, S23, 1 µg/ml doxycycline): 2.5 to 2.9 fold | binding of S100P to tubulin subunits and half molecules [6]: interacted with both α and β-tubulin subunits and with all four half molecules | fold decrease in strength of adhesion (HeLa-A3 cells [7]): 1.58 fold
